Assay results: patent publication US20220175781A1, “CD40L COMPOSITIONS AND METHODS FOR TUNABLE REGULATION” (Obsidian Therapeutics, Inc., priority 2019, published 2022)
“And” between values parts separate entries of the source, which are not always exact repeats. Equal values may be shown once.

What was measured:
T cells (CD4+ and CD8+) = assay: Co-expression of CD40L and CD19 CAR on transduced T cells; assay type: cell-based
Description: The results for CD4+ and CD8+ cells and total cells are shown below.

HEK293T cells = assay: Surface expression of CD40L trimerization mutants, transfected HEK293T cells (FACS); assay type: cell-based, human; settings: transiently transfected HEK293T cells
Description: Mutations were engineered within CD40L payload to reduce the binding affinity of CD40L payload for the CD40L endogenously expressed by cells. Constructs OT-002078, OT-002079, OT-002080, OT-002081, OT-002082 were generated with the CD40L trimerization mutants. HEK293T cells were transiently transfected with the constructs and CD40L expression was measured by FACS.

Jurkat cells [1] = assay: In vivo CD40L regulation in Jurkat cells harvested from bone marrow of NSG mice; settings: constitutive construct, Jurkat cells from bone marrow, day 16
Description: Jurkat cells stably expressing OT-001661, OT-002034 were intravenously infused into 8-week old NSG mice (20 million cells per mouse). Starting by day 15, mice were orally dosed according to the study design shown in Table 42 and Jurkat cells were harvested on day 16 from the bone marrow and analyzed by FACS. In Tables 41 and 42, TMP refers to Trimethoprim and all dosing is relative to “0 hr” time point on day 16. The results are shown in Table 43 and Table 44 where “EV” refers to empty vector control.

Jurkat cells [2] = assay: CD40L shedding ELISA of supernatant, Jurkat cells with or without CD40-Fc receptor; assay type: cell-based; design: CD40L levels in supernatant: unit not given here; settings: 6 hours
Description: Sheddases e.g. ADAM10/17 present in the tumor microenvironment can cleave CD40L thereby preventing the successful activation of CD40 by CD40L. […] OT-001669 which has a deletion of amino acids 1-13 of CD40L was designed to reduce internalization and OT-001668 which has a deletion of amino acids 110-116 of CD40L was designed to remove the ADAM10/17 sites. Jurkat cells stably expressing the full length construct OT-001661, OT-001669, or OT-001668 were cultured for 6 hours with 1.25 μg/ml recombinant human (h) or mouse (m) CD40-Fc receptor or left untreated and tested using an ELISA assay (Table 15).

CD40 = CD40 (UniProt P25942); assay: cell-based or functional assay
Chain of CD40 (P25942 21-277 limits assumed): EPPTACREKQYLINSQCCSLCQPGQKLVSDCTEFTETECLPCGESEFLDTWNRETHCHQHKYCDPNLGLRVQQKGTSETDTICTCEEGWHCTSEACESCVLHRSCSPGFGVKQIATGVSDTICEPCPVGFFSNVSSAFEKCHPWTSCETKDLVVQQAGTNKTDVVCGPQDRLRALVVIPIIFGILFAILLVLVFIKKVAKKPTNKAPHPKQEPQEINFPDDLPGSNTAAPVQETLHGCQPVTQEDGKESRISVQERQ

[3] = tested on: T cells (CD4 and CD8 positive); assay: Bazedoxifene dose response, CD40L MFI in CD4 and CD8 positive T cells (day 4, freeze/thaw, restimulation); assay type: cell-based
Description: Dose response with Bazedoxifene in T cells were conducted for OT-001966, OT-001967, OT-001666. Expression of CD40L was measured at (a) day 4 after transduction, (b) after freezing and thawing the cells or (c) after freezing and thawing the cells followed by restimulation with CD3/CD28 beads. The CD40L MFI (median fluorescence intensity) within CD4 and CD8 positive subpopulations is shown in Table 34 and Table 35 respectively.

Jurkat cells [4] = assay: Linker length, ER regulated CD40L, % CD40L positive Jurkat cells; assay type: cell-based
Description: Jurkat cells were lentivirally transduced and 24 hours after transduction were treated with DMSO or 1 μM Bazedoxifene for another 24 hours and analyzed by flow cytometry for surface expression of CD40L. […] In Table 33, SR indicates stabilization ratio.

Jurkat cells [5] = assay: DHFR regulated CD40L expression, transduced Jurkat cells (flow cytometry); assay type: cell-based
Description: Jurkat cells were transduced with lentiviruses corresponding to OT-001662, OT-001962, OT-001961, OT-001963. 24 hours after transduction, cells were split and treated with DMSO or 50 μM TMP for another 24 hours until flow cytometry-based analysis. The results are shown in Table 37 where SR indicates stabilization ration.

B1: OT-001661: constitutively expressed full length CD40L construct (protein)
chain: MHMIETYNQTSPRSAATGLPISMKIFMYLLTVFLITQMIGSALFAVYLHRRLDKIEDERNLHEDFVFMKTIQRCNTGERSLSLLNCEEIKSQFEGFVKDIMLNKEETKKENSFEMQKGDQNPQIAAHVISEASSKTTSVLQWAEKGYYTMSNNLVTLENGKQLTVKRQGLYYIYAQVTFCSNREASSQAPFIASLCLKSPGRFERILLRAANTHSSAKPCGQQSIHLGGVFELQPGASVFVNVTDPSQVSHGTGFTSFGLLKL
T cells (CD4+ and CD8+); All Cells
  Percent of Cells co-expressing CD40L and CD19 CAR: 0%
T cells (CD4+ and CD8+); CD4+
  Percent of Cells co-expressing CD40L and CD19 CAR: 0%
T cells (CD4+ and CD8+); CD8+
  Percent of Cells co-expressing CD40L and CD19 CAR: 0%
HEK293T cells
  % CD40L positive: 43.3%
Jurkat cells [1]; Average
  CD40L MFI values: 586.5
  Percent CD40L positive cells: 58.9%
Jurkat cells [1]; individual mice
  CD40L MFI values: 507 and 572 and 660 and 607
  Percent CD40L positive cells: 52.5% and 57.5% and 64.2% and 61.4%
Jurkat cells [2]; 1.25 μg/ml hCD40-Fc
  CD40L levels in supernatant: 3599.72
Jurkat cells [2]; 1.25 μg/ml mCD40-Fc
  CD40L levels in supernatant: 2589.21
Jurkat cells [2]; Untreated
  CD40L levels in supernatant: 1382.06

B2: OT-001666 (Met; ER (305-549 of WT, L384M, N413D, M421G, G521R, Y537S); Histidine; CD40L; stop) (ligand)
chain: MSLALSLTADQMVSALLDAEPPILYSEYDPTRPFSEASMMGLLTNLADRELVHMINWAKRVPGFVDLTLHDQVHLLECAWMEILMIGLVWRSMEHPGKLLFAPNLLLDRDQGKCVEGGVEIFDMLLATSSRFRMMNLQGEEFVCLKSIILLNSGVYTFLSSTLKSLEEKDHIHRVLDKITDTLIHLMAKAGLTLQQQHQRLAQLLLILSHIRHMSNKRMEHLYSMKCKNVVPLSDLLLEMLDAHRLHMIETYNQTSPRSAATGLPISMKIFMYLLTVFLITQMIGSALFAVYLHRRLDKIEDERNLHEDFVFMKTIQRCNTGERSLSLLNCEEIKSQFEGFVKDIMLNKEETKKENSFEMQKGDQNPQIAAHVISEASSKTTSVLQWAEKGYYTMSNNLVTLENGKQLTVKRQGLYYIYAQVTFCSNREASSQAPFIASLCLKSPGRFERILLRAANTHSSAKPCGQQSIHLGGVFELQPGASVFVNVTDPSQVSHGTGFTSFGLLKL
CD40
  SEAP reporter of HEK-Blue CD40 cells co-cultured 24 hours with transduced Jurkat cells plus 1 µM Bazedoxifene, given as Soluble CD40L (pg/ml) against a recombinant soluble CD40L standard: 1820 pg/mL
[3]; CD4+ cells, Day 4, Bazedoxifene 0.01 nM
  CD40L expression (MFI): 372
[3]; CD4+ cells, Day 4, Bazedoxifene 0.1 nM
  CD40L expression (MFI): 420
[3]; CD4+ cells, Day 4, Bazedoxifene 1 nM
  CD40L expression (MFI): 427
[3]; CD4+ cells, Day 4, Bazedoxifene 10 nM
  CD40L expression (MFI): 476
[3]; CD4+ cells, Day 4, Bazedoxifene 100 nM
  CD40L expression (MFI): 732
[3]; CD4+ cells, Day 4, Bazedoxifene 1000 nM
  CD40L expression (MFI): 1397
[3]; CD4+ cells, Day 4, Bazedoxifene 10000 nM
  CD40L expression (MFI): 1274
[3]; CD4+ cells, Post Thaw, Bazedoxifene 0.01 nM
  CD40L expression (MFI): 134
[3]; CD4+ cells, Post Thaw, Bazedoxifene 0.1 nM
  CD40L expression (MFI): 138
[3]; CD4+ cells, Post Thaw, Bazedoxifene 1 nM
  CD40L expression (MFI): 145
[3]; CD4+ cells, Post Thaw, Bazedoxifene 10 nM
  CD40L expression (MFI): 162
[3]; CD4+ cells, Post Thaw, Bazedoxifene 100 nM
  CD40L expression (MFI): 208
[3]; CD4+ cells, Post Thaw, Bazedoxifene 1000 nM
  CD40L expression (MFI): 241
[3]; CD4+ cells, Post Thaw, Bazedoxifene 10000 nM
  CD40L expression (MFI): 537
[3]; CD4+ cells, Restim, Bazedoxifene 0.01 nM
  CD40L expression (MFI): 592
[3]; CD4+ cells, Restim, Bazedoxifene 0.1 nM
  CD40L expression (MFI): 658
[3]; CD4+ cells, Restim, Bazedoxifene 1 nM
  CD40L expression (MFI): 682
[3]; CD4+ cells, Restim, Bazedoxifene 10 nM
  CD40L expression (MFI): 658
[3]; CD4+ cells, Restim, Bazedoxifene 100 nM
  CD40L expression (MFI): 953
[3]; CD4+ cells, Restim, Bazedoxifene 1000 nM
  CD40L expression (MFI): 1688
[3]; CD4+ cells, Restim, Bazedoxifene 10000 nM
  CD40L expression (MFI): 1577
[3]; CD8+ cells, Day 4, Bazedoxifene 0.01 nM
  CD40L expression (MFI): 165
[3]; CD8+ cells, Day 4, Bazedoxifene 0.1 nM
  CD40L expression (MFI): 171
[3]; CD8+ cells, Day 4, Bazedoxifene 1 nM
  CD40L expression (MFI): 172
[3]; CD8+ cells, Day 4, Bazedoxifene 10 nM
  CD40L expression (MFI): 176
[3]; CD8+ cells, Day 4, Bazedoxifene 100 nM
  CD40L expression (MFI): 313
[3]; CD8+ cells, Day 4, Bazedoxifene 1000 nM
  CD40L expression (MFI): 601
[3]; CD8+ cells, Day 4, Bazedoxifene 10000 nM
  CD40L expression (MFI): 404
[3]; CD8+ cells, Post Thaw, Bazedoxifene 0.01 nM
  CD40L expression (MFI): 103
[3]; CD8+ cells, Post Thaw, Bazedoxifene 0.1 nM
  CD40L expression (MFI): 105
[3]; CD8+ cells, Post Thaw, Bazedoxifene 1 nM
  CD40L expression (MFI): 107
[3]; CD8+ cells, Post Thaw, Bazedoxifene 10 nM
  CD40L expression (MFI): 117
[3]; CD8+ cells, Post Thaw, Bazedoxifene 100 nM
  CD40L expression (MFI): 170
[3]; CD8+ cells, Post Thaw, Bazedoxifene 1000 nM
  CD40L expression (MFI): 213
[3]; CD8+ cells, Post Thaw, Bazedoxifene 10000 nM
  CD40L expression (MFI): 326
[3]; CD8+ cells, Restim, Bazedoxifene 0.01 nM
  CD40L expression (MFI): 238
[3]; CD8+ cells, Restim, Bazedoxifene 0.1 nM
  CD40L expression (MFI): 244
[3]; CD8+ cells, Restim, Bazedoxifene 1 nM
  CD40L expression (MFI): 263
[3]; CD8+ cells, Restim, Bazedoxifene 10 nM
  CD40L expression (MFI): 253
[3]; CD8+ cells, Restim, Bazedoxifene 100 nM
  CD40L expression (MFI): 354
[3]; CD8+ cells, Restim, Bazedoxifene 1000 nM
  CD40L expression (MFI): 567
[3]; CD8+ cells, Restim, Bazedoxifene 10000 nM
  CD40L expression (MFI): 458
Jurkat cells [4]; 1 μM Bazedoxifene
  Percent of Jurkat cells expressing CD40L: 30%
Jurkat cells [4]; 1 μM Bazedoxifene versus DMSO, % CD40L positive Jurkat cells
  SR: 3
Jurkat cells [4]; DMSO
  Percent of Jurkat cells expressing CD40L: 10%

B3: OT-001662: CD40L construct with ecDHFR (M1del, R12Y, Y100I) DRD, ligand TMP (protein)
chain: MSGISLIAALAVDYVIGMENAMPWNLPADLAWFKRNTLNKPVIMGRHTWESIGRPLPGRKNIILSSQPGTDDRVTWVKSVDEAIAACGDVPEIMVIGGGRVIEQFLPKAQKLYLTHIDAEVEGDTHFPDYEPDDWESVFSEFHDADAQNSHSYCFEILERRHMIETYNQTSPRSAATGLPISMKIFMYLLTVFLITQMIGSALFAVYLHRRLDKIEDERNLHEDFVFMKTIQRCNTGERSLSLLNCEEIKSQFEGFVKDIMLNKEETKKENSFEMQKGDQNPQIAAHVISEASSKTTSVLQWAEKGYYTMSNNLVTLENGKQLTVKRQGLYYIYAQVTFCSNREASSQAPFIASLCLKSPGRFERILLRAANTHSSAKPCGQQSIHLGGVFELQPGASVFVNVTDPSQVSHGTGFTSFGLLKL
Jurkat cells [5]; TMP (50 μM)
  % CD40L expression: 90%
Jurkat cells [5]; TMP (50 μM) versus Vehicle
  SR: 90
Jurkat cells [5]; Vehicle (DMSO)
  % CD40L expression: 1%
